T1: human GIP receptor (human, UniProt P48546 22-466)
T1 sequence (looked up): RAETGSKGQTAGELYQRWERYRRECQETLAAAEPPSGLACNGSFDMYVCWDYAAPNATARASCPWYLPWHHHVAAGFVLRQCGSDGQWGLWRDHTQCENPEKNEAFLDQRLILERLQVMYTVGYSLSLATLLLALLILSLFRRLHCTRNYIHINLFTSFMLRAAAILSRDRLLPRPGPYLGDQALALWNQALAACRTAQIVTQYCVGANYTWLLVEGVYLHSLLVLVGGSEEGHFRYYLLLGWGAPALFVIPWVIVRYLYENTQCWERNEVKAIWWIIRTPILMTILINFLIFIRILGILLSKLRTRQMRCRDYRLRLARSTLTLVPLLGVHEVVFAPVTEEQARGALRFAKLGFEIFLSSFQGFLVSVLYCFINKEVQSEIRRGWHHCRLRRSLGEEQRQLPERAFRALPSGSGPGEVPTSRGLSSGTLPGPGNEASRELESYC

B1: SEQ ID NO: 16 (peptide)
peptide: H[Aib]QGTFTSDLSKLK([γGlu-γGlu-AEEA-Palmitoyl])EKQRQ[Aib]EFIEWLKAGGHPS[Aib]KPPPK-NH2
modifications: N-terminus assumed
SMILES: CCCCCCCCCCCCCCCC(=O)NCCOCCOCC(=O)N[C@@H](CCC(=O)N[C@@H](CCC(=O)NCCCC[C@H](NC(=O)[C@H](CC(C)C)NC(=O)[C@H](CCCCN)NC(=O)[C@H](CO)NC(=O)[C@H](CC(C)C)NC(=O)[C@H](CC(=O)O)NC(=O)[C@H](CO)NC(=O)[C@@H](NC(=O)[C@H](Cc1ccccc1)NC(=O)[C@@H](NC(=O)CNC(=O)[C@H](CCC(N)=O)NC(=O)C(C)(C)NC(=O)[C@@H](N)Cc1c[nH]cn1)[C@@H](C)O)[C@@H](C)O)C(=O)N[C@@H](CCC(=O)O)C(=O)N[C@@H](CCCCN)C(=O)N[C@@H](CCC(N)=O)C(=O)N[C@@H](CCCNC(=N)N)C(=O)N[C@@H](CCC(N)=O)C(=O)NC(C)(C)C(=O)N[C@@H](CCC(=O)O)C(=O)N[C@@H](Cc1ccccc1)C(=O)N[C@H](C(=O)N[C@@H](CCC(=O)O)C(=O)N[C@@H](Cc1c[nH]c2ccccc12)C(=O)N[C@@H](CC(C)C)C(=O)N[C@@H](CCCCN)C(=O)N[C@@H](C)C(=O)NCC(=O)NCC(=O)N[C@@H](Cc1c[nH]cn1)C(=O)N1CCC[C@H]1C(=O)N[C@@H](CO)C(=O)NC(C)(C)C(=O)N[C@@H](CCCCN)C(=O)N1CCC[C@H]1C(=O)N1CCC[C@H]1C(=O)N1CCC[C@H]1C(=O)N[C@@H](CCCCN)C(N)=O)[C@@H](C)CC)C(=O)O)C(=O)O
B2: SEQ ID NO: 15 (peptide)
peptide: H[Aib]QGTFTSDLSKLK([γGlu-Stearoyl])EKQRQ[Aib]EFIEWLKAGGPPS[Aib]KPPPK-NH2
modifications: N-terminus assumed
SMILES: CCCCCCCCCCCCCCCCCC(=O)N[C@@H](CCC(=O)NCCCC[C@H](NC(=O)[C@H](CC(C)C)NC(=O)[C@H](CCCCN)NC(=O)[C@H](CO)NC(=O)[C@H](CC(C)C)NC(=O)[C@H](CC(=O)O)NC(=O)[C@H](CO)NC(=O)[C@@H](NC(=O)[C@H](Cc1ccccc1)NC(=O)[C@@H](NC(=O)CNC(=O)[C@H](CCC(N)=O)NC(=O)C(C)(C)NC(=O)[C@@H](N)Cc1c[nH]cn1)[C@@H](C)O)[C@@H](C)O)C(=O)N[C@@H](CCC(=O)O)C(=O)N[C@@H](CCCCN)C(=O)N[C@@H](CCC(N)=O)C(=O)N[C@@H](CCCNC(=N)N)C(=O)N[C@@H](CCC(N)=O)C(=O)NC(C)(C)C(=O)N[C@@H](CCC(=O)O)C(=O)N[C@@H](Cc1ccccc1)C(=O)N[C@H](C(=O)N[C@@H](CCC(=O)O)C(=O)N[C@@H](Cc1c[nH]c2ccccc12)C(=O)N[C@@H](CC(C)C)C(=O)N[C@@H](CCCCN)C(=O)N[C@@H](C)C(=O)NCC(=O)NCC(=O)N1CCC[C@H]1C(=O)N1CCC[C@H]1C(=O)N[C@@H](CO)C(=O)NC(C)(C)C(=O)N[C@@H](CCCCN)C(=O)N1CCC[C@H]1C(=O)N1CCC[C@H]1C(=O)N1CCC[C@H]1C(=O)N[C@@H](CCCCN)C(N)=O)[C@@H](C)CC)C(=O)O
B3: SEQ ID NO: 14 (peptide)
peptide: H[Aib]QGTFTSDLSKLK([γGlu-Palmitoyl])EKQRQ[Aib]EFIEWLKAGGPPS[Aib]KPPPK-NH2
modifications: N-terminus assumed
SMILES: CCCCCCCCCCCCCCCC(=O)N[C@@H](CCC(=O)NCCCC[C@H](NC(=O)[C@H](CC(C)C)NC(=O)[C@H](CCCCN)NC(=O)[C@H](CO)NC(=O)[C@H](CC(C)C)NC(=O)[C@H](CC(=O)O)NC(=O)[C@H](CO)NC(=O)[C@@H](NC(=O)[C@H](Cc1ccccc1)NC(=O)[C@@H](NC(=O)CNC(=O)[C@H](CCC(N)=O)NC(=O)C(C)(C)NC(=O)[C@@H](N)Cc1c[nH]cn1)[C@@H](C)O)[C@@H](C)O)C(=O)N[C@@H](CCC(=O)O)C(=O)N[C@@H](CCCCN)C(=O)N[C@@H](CCC(N)=O)C(=O)N[C@@H](CCCNC(=N)N)C(=O)N[C@@H](CCC(N)=O)C(=O)NC(C)(C)C(=O)N[C@@H](CCC(=O)O)C(=O)N[C@@H](Cc1ccccc1)C(=O)N[C@H](C(=O)N[C@@H](CCC(=O)O)C(=O)N[C@@H](Cc1c[nH]c2ccccc12)C(=O)N[C@@H](CC(C)C)C(=O)N[C@@H](CCCCN)C(=O)N[C@@H](C)C(=O)NCC(=O)NCC(=O)N1CCC[C@H]1C(=O)N1CCC[C@H]1C(=O)N[C@@H](CO)C(=O)NC(C)(C)C(=O)N[C@@H](CCCCN)C(=O)N1CCC[C@H]1C(=O)N1CCC[C@H]1C(=O)N1CCC[C@H]1C(=O)N[C@@H](CCCCN)C(N)=O)[C@@H](C)CC)C(=O)O
B4: SEQ ID NO: 13 (peptide)
peptide: H[Aib]QGTFTSDLSKLK([γGlu-γGlu-Palmitoyl])EKQRQ[Aib]EFIEWLKA[dA]GHPS[Aib]KPPPK-NH2
modifications: N-terminus assumed
SMILES: CCCCCCCCCCCCCCCC(=O)N[C@@H](CCC(=O)N[C@@H](CCC(=O)NCCCC[C@H](NC(=O)[C@H](CC(C)C)NC(=O)[C@H](CCCCN)NC(=O)[C@H](CO)NC(=O)[C@H](CC(C)C)NC(=O)[C@H](CC(=O)O)NC(=O)[C@H](CO)NC(=O)[C@@H](NC(=O)[C@H](Cc1ccccc1)NC(=O)[C@@H](NC(=O)CNC(=O)[C@H](CCC(N)=O)NC(=O)C(C)(C)NC(=O)[C@@H](N)Cc1c[nH]cn1)[C@@H](C)O)[C@@H](C)O)C(=O)N[C@@H](CCC(=O)O)C(=O)N[C@@H](CCCCN)C(=O)N[C@@H](CCC(N)=O)C(=O)N[C@@H](CCCNC(=N)N)C(=O)N[C@@H](CCC(N)=O)C(=O)NC(C)(C)C(=O)N[C@@H](CCC(=O)O)C(=O)N[C@@H](Cc1ccccc1)C(=O)N[C@H](C(=O)N[C@@H](CCC(=O)O)C(=O)N[C@@H](Cc1c[nH]c2ccccc12)C(=O)N[C@@H](CC(C)C)C(=O)N[C@@H](CCCCN)C(=O)N[C@@H](C)C(=O)N[C@H](C)C(=O)NCC(=O)N[C@@H](Cc1c[nH]cn1)C(=O)N1CCC[C@H]1C(=O)N[C@@H](CO)C(=O)NC(C)(C)C(=O)N[C@@H](CCCCN)C(=O)N1CCC[C@H]1C(=O)N1CCC[C@H]1C(=O)N1CCC[C@H]1C(=O)N[C@@H](CCCCN)C(N)=O)[C@@H](C)CC)C(=O)O)C(=O)O
B5: SEQ ID NO: 6 (peptide)
peptide: H[Aib]QGTFTSDLSKLK([γGlu-γGlu-Palmitoyl])EKQRQ[Aib]EFIEWLKAGGPPS[Aib]KPPPK-NH2
modifications: N-terminus assumed
SMILES: CCCCCCCCCCCCCCCC(=O)N[C@@H](CCC(=O)N[C@@H](CCC(=O)NCCCC[C@H](NC(=O)[C@H](CC(C)C)NC(=O)[C@H](CCCCN)NC(=O)[C@H](CO)NC(=O)[C@H](CC(C)C)NC(=O)[C@H](CC(=O)O)NC(=O)[C@H](CO)NC(=O)[C@@H](NC(=O)[C@H](Cc1ccccc1)NC(=O)[C@@H](NC(=O)CNC(=O)[C@H](CCC(N)=O)NC(=O)C(C)(C)NC(=O)[C@@H](N)Cc1c[nH]cn1)[C@@H](C)O)[C@@H](C)O)C(=O)N[C@@H](CCC(=O)O)C(=O)N[C@@H](CCCCN)C(=O)N[C@@H](CCC(N)=O)C(=O)N[C@@H](CCCNC(=N)N)C(=O)N[C@@H](CCC(N)=O)C(=O)NC(C)(C)C(=O)N[C@@H](CCC(=O)O)C(=O)N[C@@H](Cc1ccccc1)C(=O)N[C@H](C(=O)N[C@@H](CCC(=O)O)C(=O)N[C@@H](Cc1c[nH]c2ccccc12)C(=O)N[C@@H](CC(C)C)C(=O)N[C@@H](CCCCN)C(=O)N[C@@H](C)C(=O)NCC(=O)NCC(=O)N1CCC[C@H]1C(=O)N1CCC[C@H]1C(=O)N[C@@H](CO)C(=O)NC(C)(C)C(=O)N[C@@H](CCCCN)C(=O)N1CCC[C@H]1C(=O)N1CCC[C@H]1C(=O)N1CCC[C@H]1C(=O)N[C@@H](CCCCN)C(N)=O)[C@@H](C)CC)C(=O)O)C(=O)O
B6: SEQ ID NO: 17 (peptide)
peptide: H[Aib]QGTFTSDLSKLK([γGlu-γGlu-AEEA-Palmitoyl])EKQRQ[Aib]EFIEWLKA[dA]GHPS[Aib]KPPPK-NH2
modifications: N-terminus assumed
SMILES: CCCCCCCCCCCCCCCC(=O)NCCOCCOCC(=O)N[C@@H](CCC(=O)N[C@@H](CCC(=O)NCCCC[C@H](NC(=O)[C@H](CC(C)C)NC(=O)[C@H](CCCCN)NC(=O)[C@H](CO)NC(=O)[C@H](CC(C)C)NC(=O)[C@H](CC(=O)O)NC(=O)[C@H](CO)NC(=O)[C@@H](NC(=O)[C@H](Cc1ccccc1)NC(=O)[C@@H](NC(=O)CNC(=O)[C@H](CCC(N)=O)NC(=O)C(C)(C)NC(=O)[C@@H](N)Cc1c[nH]cn1)[C@@H](C)O)[C@@H](C)O)C(=O)N[C@@H](CCC(=O)O)C(=O)N[C@@H](CCCCN)C(=O)N[C@@H](CCC(N)=O)C(=O)N[C@@H](CCCNC(=N)N)C(=O)N[C@@H](CCC(N)=O)C(=O)NC(C)(C)C(=O)N[C@@H](CCC(=O)O)C(=O)N[C@@H](Cc1ccccc1)C(=O)N[C@H](C(=O)N[C@@H](CCC(=O)O)C(=O)N[C@@H](Cc1c[nH]c2ccccc12)C(=O)N[C@@H](CC(C)C)C(=O)N[C@@H](CCCCN)C(=O)N[C@@H](C)C(=O)N[C@H](C)C(=O)NCC(=O)N[C@@H](Cc1c[nH]cn1)C(=O)N1CCC[C@H]1C(=O)N[C@@H](CO)C(=O)NC(C)(C)C(=O)N[C@@H](CCCCN)C(=O)N1CCC[C@H]1C(=O)N1CCC[C@H]1C(=O)N1CCC[C@H]1C(=O)N[C@@H](CCCCN)C(N)=O)[C@@H](C)CC)C(=O)O)C(=O)O

Numbered stars: 1 amine (or outer) side, 2 acyl side, 3 side chain; on linkers, the order of the positions; unused ones are H or OH. Square brackets hold non-standard residues; d marks the D form. Side chains are listed from the residue outwards. Ends that are not written are not given here. * marks the point of attachment. γGlu = O=C(O)[C@H](CCC(=O)[*:2])N[*:1]; Stearoyl = CCCCCCCCCCCCCCCCCC(=O)*; Palmitoyl = CCCCCCCCCCCCCCCC(=O)*; AEEA = NCCOCCOCC(=O)O; Aib = CC(C)(N)C(=O)O

Consider 6 molecules from patent publication US20180155407A1 (Sanofi, published 2018).

human glucagon receptor, sequence (P47871 26-477): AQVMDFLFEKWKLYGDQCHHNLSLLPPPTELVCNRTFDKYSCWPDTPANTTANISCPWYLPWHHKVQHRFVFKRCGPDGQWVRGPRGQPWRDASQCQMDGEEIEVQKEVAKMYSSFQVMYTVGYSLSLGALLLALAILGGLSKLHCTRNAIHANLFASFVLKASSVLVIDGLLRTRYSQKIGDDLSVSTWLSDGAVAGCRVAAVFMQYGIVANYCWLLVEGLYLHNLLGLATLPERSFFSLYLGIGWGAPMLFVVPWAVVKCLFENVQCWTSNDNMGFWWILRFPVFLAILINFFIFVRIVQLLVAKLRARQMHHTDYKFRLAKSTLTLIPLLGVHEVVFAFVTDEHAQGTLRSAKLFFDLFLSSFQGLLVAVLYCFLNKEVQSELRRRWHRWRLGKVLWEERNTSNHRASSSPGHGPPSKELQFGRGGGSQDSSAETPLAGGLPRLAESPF

The first assay addresses human GLP-1 receptor (human, UniProt P43220 24-463). The assay can be described thus: cell-based or functional assay.
Turning to B1, the “EC50 hGLP-1R (cAMP formation)” value is 0.0013 nM.
As to B2, the “EC50 hGLP-1R (cAMP formation)” value stood at 0.0057 nM.
B3: the “EC50 hGLP-1R (cAMP formation)” value was found to be 0.0057 nM.
On to B4, for which the “EC50 hGLP-1R (cAMP formation)” value is 0.0038 nM.
For B5, the “EC50 hGLP-1R (cAMP formation)” value worked out at 0.0028 nM.
With B6, the “EC50 hGLP-1R (cAMP formation)” value is 0.0018 nM.

A further assay has as its target T1, human GIP receptor. The assay can be described thus: cell-based or functional assay.
For B1, the “EC50 hGIP R (cAMP formation)” value was 0.0075 nM.
For B2, the “EC50 hGIP R (cAMP formation)” value was 0.0261 nM.
Still for that read-out and setting: the result for B3 reads 0.0182 nM; that for B4, 0.0204 nM.
B5: the “EC50 hGIP R (cAMP formation)” value came out at 0.0079 nM.
In the case of B6, the “EC50 hGIP R (cAMP formation)” value was determined as 0.0114 nM.

Another assay has as its target human glucagon receptor (human, UniProt P47871 26-477). Description: cell-based or functional assay.
Turning to B1, the “EC50 hGlucagon R (cAMP formation)” value stood at 0.0186 nM.
Turning to B2, the “EC50 hGlucagon R (cAMP formation)” value was determined as 0.0156 nM.
With B3, the “EC50 hGlucagon R (cAMP formation)” value was 0.0316 nM.
Consider B4, for which the “EC50 hGlucagon R (cAMP formation)” value was 0.0258 nM.
As to B5, the “EC50 hGlucagon R (cAMP formation)” value was 0.0164 nM.
For the molecule B6, the “EC50 hGlucagon R (cAMP formation)” value was 0.022 nM.
